System: tyrosine hydroxylation to L-DOPA
Experiment: Transient expression in N. benthamiana leaves, LC-MS detection of L-DOPA
Assay type: in vivo, Nicotiana benthamiana
Details: vector or gene infiltrated without BvDODA1, LC-MS
Experimental: In all cases, agrobacteria were grown overnight in LB media and brought to a final O.D.600 0.2 in infiltration buffer. When co-infiltrated, agrobacteria carrying separate constructs were each brought to O.D.600 0.2 and mixed in a 1:1 ratio before infiltration. Tissues used for subsequent LC-MS analysis were sampled from leaves 7 days post infiltration. For LC-MS analysis of L-DOPA and betalains, 3-4 biological replicates for each experiment were sampled, each consisting of infiltrated tissues from 2-3 different leaves. For L-DOPA analysis, samples were extracted as described above and analyzed using a UPLC/PDA-MSMS instrument, where a UPLC separation module (Waters Acquity) was connected to a photodiode array detector (Waters Acquity 2996, 190-800 nm), and (on-line) to a triple quadrupole MS detector (Waters Xevo TQ MS), equipped with an ESI source. […] Samples were analyzed in positive ionization mode, using the following settings: capillary—2 kV, cone—26 eV, with two transitions 198.1>152.1 (collision—15 eV) and 198.1>181.1 (collision—10 eV) used for compound assignment. […]

B1: CYP76AD15: Mirabilis jalapa cytochrome P450, functional ortholog of CYP76AD6, catalyzing formation of L-DOPA from tyrosine (SEQ ID NO: 44) (protein, listed as Mirabilis jalapa)
chain: MENTMLGVILATIFLTFHIMKMLFSPSKVKLPPGPRPLPIIGNILELGDKPHRSFANLAKIHGPLVTLKLGSVTTIVVSSSEVAKEMFLKNDQPLANRTIPDSVRAGNHDKLSMSWLPVSPKWRNLRKISAVQLLSTQRLDASQAHRQAKIKQLIEYVKKCSKIGQYVDIGQVAFTTSLNLLSNTFFSKELASFDSDNAQEFKQLMWCIMEEIGRPNYADYFPILGYVDPFGARRRLSRYFDQLIEVFQVIIRERLTHDNNIVGNNNDVLATLLDLYKQNELTMDEINHLLVDIFDAGTDTTASTLEWAMSELIKNPHIMAKAQEEVRRATMSHGGATVAEIQESDINNLPYIQSIIKETLRLHPPTVFLLPRKADVDVQLFGYVVPKNAQVLVNLWAIGRDPNVWPDPEVFSPERFMDCEIDVKGRDFELLPFGAGRRICPGLSLAYRMLNLMLANMVHSFDWKLPGVENGSGSEMDSLDMDEKFGITLQKVQPLKVIPVSRK
With B1 the L-DOPA production was “L-DOPA production when infiltrated alone”.

Reference: patent US12529083B2, “CYP76AD1-beta clade polynucleotides, polypeptides, and methods for producing betalains” (YEDA RESEARCH AND DEVELOPMENT CO. LTD., priority 2015, dated 2026)
